One may read the EC50 as the concentration giving half of the maximal effect.

In experiment [1] the target is T1, cynomolgus monkey FAPα on Expi293F cells (cynomolgus monkey (Macaca fascicularis), UniProt Q12884 1-760 (human entry)).
T1 sequence: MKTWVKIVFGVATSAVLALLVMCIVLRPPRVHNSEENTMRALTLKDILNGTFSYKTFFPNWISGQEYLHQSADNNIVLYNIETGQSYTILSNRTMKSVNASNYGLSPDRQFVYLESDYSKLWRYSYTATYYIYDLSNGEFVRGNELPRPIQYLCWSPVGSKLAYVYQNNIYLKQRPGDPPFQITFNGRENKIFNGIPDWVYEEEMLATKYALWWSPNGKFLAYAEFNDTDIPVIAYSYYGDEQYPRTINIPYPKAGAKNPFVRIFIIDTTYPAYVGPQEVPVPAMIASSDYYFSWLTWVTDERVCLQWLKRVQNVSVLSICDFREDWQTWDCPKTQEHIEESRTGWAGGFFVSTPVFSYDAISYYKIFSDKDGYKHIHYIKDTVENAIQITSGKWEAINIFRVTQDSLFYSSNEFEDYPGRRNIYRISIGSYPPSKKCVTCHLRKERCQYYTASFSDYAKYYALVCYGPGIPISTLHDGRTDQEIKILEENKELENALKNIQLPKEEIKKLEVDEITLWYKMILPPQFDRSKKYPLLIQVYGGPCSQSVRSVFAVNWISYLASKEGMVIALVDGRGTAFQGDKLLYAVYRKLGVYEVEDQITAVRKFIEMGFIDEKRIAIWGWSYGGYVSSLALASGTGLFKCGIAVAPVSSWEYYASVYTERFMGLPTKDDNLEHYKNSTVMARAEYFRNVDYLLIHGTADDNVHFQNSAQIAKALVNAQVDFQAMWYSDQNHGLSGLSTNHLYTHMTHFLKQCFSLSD
As to the kind of experiment: flow cytometry, Expi293F cells expressing cynomolgus monkey FAPα, n = 2. As for the experimental part:
(§1) Binding of BisG1-FAPα-FERL/DR4-FERR, BisG1-FAPα-FEAL/b12-FEAR and IgG1-FAPα-FERL to FAPα of species commonly used for nonclinical toxicology studies was assessed by flow cytometry using Expi293F cells transiently expressing FAPα from different animal species. IgG1-b12 was included as negative control.
(§2) Expi293F cells expressing recombinant FAPα from various species (human, cynomolgus monkey, dog, pig, rat or mouse) were seeded (20,000 cells/well) in 96-Well round bottom plates (Greiner Bio-one, Cat #650101). Antibody dilutions were prepared using FACS buffer, consisting of PBS (Capricorn Scientific, Cat #PBS-10XA, diluted to 1×PBS in distilled water)+1% BSA (Roche, Cat #10735086001)+0.02% Sodium Azide (Bio-World, Cat #41920044-3). Plates were centrifuged, supernatant was removed, and cells were resuspended in 100 μL of antibody dilutions (concentration range 30-0.00017 μg/mL with three-fold serial dilutions using FACS buffer) of BisG1-FAPα-FERL/DR4-FERR, BisG1-FAPα-FEAL/b12-FEAR, IgG1-FAPα-FERL and IgG1-b12 and incubated for 30 min at 4° C. […] After 30 min incubation at 4° C., cells were washed with FACS buffer and resuspended in FACS buffer supplemented with TO-PRO-3 Iodide viability marker (Invitrogen, Cat #T3605, diluted 1:4,000). Antibody binding to viable cells (gMFI of PE on TO-PRO-3 negative cells) was analyzed by flow cytometry on a FACS Celesta and FACS_Diva software (first two experiments) or iQue® 3 and FlowJo software (last experiment). gMFI was determined and visualized using GraphPad Prism. Binding curves were analyzed using nonlinear regression analysis. The concentration (pg/mL) at which 50% of the maximal effect was observed (EC₅₀) was derived from the fitted curves.

The target of experiment [2] is T2, dog FAPα on Expi293F cells (dog (Canis familiaris), UniProt A5D7B7 1-760 (bovine entry)).
T2 chain: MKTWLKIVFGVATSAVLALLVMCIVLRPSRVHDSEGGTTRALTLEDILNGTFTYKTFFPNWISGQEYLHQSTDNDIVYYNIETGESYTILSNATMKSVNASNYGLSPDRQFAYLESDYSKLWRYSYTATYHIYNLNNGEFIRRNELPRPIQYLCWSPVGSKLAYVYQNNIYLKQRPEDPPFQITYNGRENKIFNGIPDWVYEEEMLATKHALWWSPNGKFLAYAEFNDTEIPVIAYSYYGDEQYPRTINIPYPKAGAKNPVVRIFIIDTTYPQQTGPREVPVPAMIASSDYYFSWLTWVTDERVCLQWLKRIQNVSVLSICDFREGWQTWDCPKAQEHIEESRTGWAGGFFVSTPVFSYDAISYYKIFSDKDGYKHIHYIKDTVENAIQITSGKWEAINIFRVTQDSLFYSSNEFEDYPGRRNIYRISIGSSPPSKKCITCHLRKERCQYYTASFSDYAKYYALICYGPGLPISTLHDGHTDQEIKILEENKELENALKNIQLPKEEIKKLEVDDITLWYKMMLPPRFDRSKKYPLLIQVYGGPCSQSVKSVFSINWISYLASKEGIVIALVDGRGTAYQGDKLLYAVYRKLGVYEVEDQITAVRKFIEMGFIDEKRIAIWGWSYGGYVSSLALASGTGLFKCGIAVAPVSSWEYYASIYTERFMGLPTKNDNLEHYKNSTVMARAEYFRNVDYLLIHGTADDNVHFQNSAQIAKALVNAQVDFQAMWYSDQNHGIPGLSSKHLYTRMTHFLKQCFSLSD
Put plainly: flow cytometry on Expi293F cells transiently expressing dog FAPα, gMFI PE. Here is the method: as §1, §2
A general note: A flow cytometer gives signals particle by particle.

Experiment [3] concerns the target T3, human DR4 (Death Receptor 4), cell surface expressed on human tumor cell lines (human, UniProt O00220 24-468).
T3 construct: also called TNFRSF10A; TRAIL-R1
T3 sequence: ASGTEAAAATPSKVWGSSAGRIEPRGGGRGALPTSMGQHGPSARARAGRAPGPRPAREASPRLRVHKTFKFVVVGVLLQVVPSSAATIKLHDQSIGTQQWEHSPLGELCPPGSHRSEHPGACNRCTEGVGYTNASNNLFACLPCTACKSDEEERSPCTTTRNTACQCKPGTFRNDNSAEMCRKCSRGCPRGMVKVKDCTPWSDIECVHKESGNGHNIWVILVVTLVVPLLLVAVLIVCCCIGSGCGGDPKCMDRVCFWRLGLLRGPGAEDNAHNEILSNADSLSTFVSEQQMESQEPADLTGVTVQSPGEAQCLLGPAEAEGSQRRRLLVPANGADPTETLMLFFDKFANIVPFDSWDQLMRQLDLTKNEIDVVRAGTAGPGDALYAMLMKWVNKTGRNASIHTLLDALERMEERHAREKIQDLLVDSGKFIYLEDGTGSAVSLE
Put plainly: flow cytometry, HCT-116 cells, n = 1.

In experiment [4] the target is T3, human DR4 (Death Receptor 4), cell …. As to the kind of experiment: flow cytometry, HCT-116 cells, n = 3.

Substitutions are numbered along the chain they refer to.

B1: BisG1-FAPα-FEAL/b12-FEAR (bispecific antibody, human IgG1, kappa)
heavy 1: EVQLLESGGGLVQPGGSPRLSCEASGFTFSSYALSWVRQAPGKGLEWVSAISGSGGGRYYADSVKGRFTISRDNSKNTLFLQMNSLRAEDTAVYYCAKEGYSSSGTYWDHWGQGTLVTVSSASTKGPSVFPLAPSSKSTSGGTAALGCLVKDYFPEPVTVSWNSGALTSGVHTFPAVLQSSGLYSLSSVVTVPSSSLGTQTYICNVNHKPSNTKVDKRVEPKSCDKTHTCPPCPAPEFEGGPSVFLFPPKPKDTLMISRTPEVTCVVVAVSHEDPEVKFNWYVDGVEVHNAKTKPREEQYNSTYRVVSVLTVLHQDWLNGKEYKCKVSNKALPAPIEKTISKAKGQPREPQVYTLPPSREEMTKNQVSLTCLVKGFYPSDIAVEWESNGQPENNYKTTPPVLDSDGSFLLYSKLTVDKSRWQQGNVFSCSVMHEALHNHYTQKSLSLSPG
light 1: AIQMTQSPSSVSASVGDRVTITCRASQGVSSWLAWYQQKPGRAPKLLIYVASTLQSGVPSRFSGSGSGTDFTLTINSLQPEDFATYYCQQANSFPPTFGQGTRLEMKRTVAAPSVFIFPPSDEQLKSGTASVVCLLNNFYPREAKVQWKVDNALQSGNSQESVTEQDSKDSTYSLSSTLTLSKADYEKHKVYACEVTHQGLSSPVTKSFNRGEC
heavy 2: QVQLVQSGAEVKKPGASVKVSCQASGYRFSNFVIHWVRQAPGQRFEWMGWINPYNGNKEFSAKFQDRVTFTADTSANTAYMELRSLRSADTAVYYCARVGPYSWDDSPQDNYYMDVWGKGTTVIVSSASTKGPSVFPLAPSSKSTSGGTAALGCLVKDYFPEPVTVSWNSGALTSGVHTFPAVLQSSGLYSLSSVVTVPSSSLGTQTYICNVNHKPSNTKVDKRVEPKSCDKTHTCPPCPAPEFEGGPSVFLFPPKPKDTLMISRTPEVTCVVVAVSHEDPEVKFNWYVDGVEVHNAKTKPREEQYNSTYRVVSVLTVLHQDWLNGKEYKCKVSNKALPAPIEKTISKAKGQPREPQVYTLPPSREEMTKNQVSLTCLVKGFYPSDIAVEWESNGQPENNYKTTPPVLDSDGSFFLYSRLTVDKSRWQQGNVFSCSVMHEALHNHYTQKSLSLSPG
light 2: EIVLTQSPGTLSLSPGERATFSCRSSHSIRSRRVAWYQHKPGQAPRLVIHGVSNRASGISDRFSGSGSGTDFTLTITRVEPEDFALYYCQVYGASSYTFGQGTKLERKRTVAAPSVFIFPPSDEQLKSGTASVVCLLNNFYPREAKVQWKVDNALQSGNSQESVTEQDSKDSTYSLSSTLTLSKADYEKHKVYACEVTHQGLSSPVTKSFNRGEC
notes: Fab-arm exchange of IgG1-FAPα-FEAL and IgG1-b12-FEAR
As to B1, in experiment [1], the EC50 was 0.16 µg/mL. For the same molecule, the binding result in experiment [2] was “binds”.

B2: BisG1-b12-FERL/DR4-FERR (bispecific antibody, human IgG1, kappa, lambda)
heavy 1: B1 heavy 2 with G246R, A275D, F415L, R419K
light 1: B1 light 2
heavy 2: QVQLQESGPGLVKPSGTLSLTCAVSGGSISSYSWWSWIRQPPGKGLEWIGELYHSGSTNYNPSLKSRVTISVDKSKNQFSLKLRSVTAADTAVYYCVRGVATIDYWGQGTLVTVSSASTKGPSVFPLAPSSKSTSGGTAALGCLVKDYFPEPVTVSWNSGALTSGVHTFPAVLQSSGLYSLSSVVTVPSSSLGTQTYICNVNHKPSNTKVDKRVEPKSCDKTHTCPPCPAPEFERGPSVFLFPPKPKDTLMISRTPEVTCVVVDVSHEDPEVKFNWYVDGVEVHNAKTKPREEQYNSTYRVVSVLTVLHQDWLNGKEYKCKVSNKALPAPIEKTISKAKGQPREPQVYTLPPSREEMTKNQVSLTCLVKGFYPSDIAVEWESNGQPENNYKTTPPVLDSDGSFFLYSRLTVDKSRWQQGNVFSCSVMHEALHNHYTQKSLSLSPG
light 2: QSALTQPPSASGSPGQSVTISCTGTSSDVGGYNFVSWYQQDPGKAPKLLIYEVTKRPSGVPDRFSGSKSGNTASLTVSGLQAEDEADYYCSSYAGSNNVMFGGGTKLTVLGQPKAAPSVTLFPPSSEELQANKATLVCLISDFYPGAVTVAWKADSSPVKAGVETTTPSKQSNNKYAASSYLSLTPEQWKSHRSYSCQVTHEGSTVEKTVAPTECS
notes: Fab-arm exchange of IgG1-b12-FERL and IgG1-DR4-FERR; also called bsIgG1-ctrl-FERLxDR4-FERR
B2: the figures for the EC50 in experiment [3] and in experiment [4] were 0.51 µg/mL and 0.55 µg/mL, respectively.

B3: IgG1-FAPα-FERL (antibody)
heavy: B1 heavy 1 with G240R, A269D
light: B1 light 1
notes: Bivalent monoclonal IgG1 kappa
As for B3, the concentration for a half-maximal effect (EC50) in experiment [1] was 0.11 µg/mL. Moreover, in experiment [2], the binding result is “binds”.

B4: IgG1-DR4-FERR (antibody, V domains shown)
VH: QVQLQESGPGLVKPSGTLSLTCAVSGGSISSYSWWSWIRQPPGKGLEWIGELYHSGSTNYNPSLKSRVTISVDKSKNQFSLKLRSVTAADTAVYYCVRGVATIDYWGQGTLVTVSS
VL: QSALTQPPSASGSPGQSVTISCTGTSSDVGGYNFVSWYQQDPGKAPKLLIYEVTKRPSGVPDRFSGSKSGNTASLTVSGLQAEDEADYYCSSYAGSNNVMFGGGTKLTVLG
notes: Bivalent monoclonal IgG1 lambda
Turning to B4, the 50% effective concentration (EC50) in experiment [3] stood at 0.22 µg/mL; in experiment [4], 0.11 µg/mL.

Source of the values: US20250002610A1 (Genmab, published 2025).
